Test results taken from patent US9029508 (dated 2015).
Several values for one entry are separate records, joined by “and”; a condition that tells them apart may be missing. Identical values can stand only once. One block for each binder: values may come before it.

Columns and labels:
VEGF = molecular target: T1, VEGF (human, UniProt P15692); test: ELISA
T1 chain: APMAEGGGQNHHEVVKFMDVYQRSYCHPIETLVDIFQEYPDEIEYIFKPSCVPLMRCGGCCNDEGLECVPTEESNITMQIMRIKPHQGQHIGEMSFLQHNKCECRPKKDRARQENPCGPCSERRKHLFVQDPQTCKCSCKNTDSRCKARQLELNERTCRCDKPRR

DLL4 [1] = molecular target: T2, DLL4 (human, UniProt Q9NR61); test: competition
T2 sequence (Q9NR61 27-524): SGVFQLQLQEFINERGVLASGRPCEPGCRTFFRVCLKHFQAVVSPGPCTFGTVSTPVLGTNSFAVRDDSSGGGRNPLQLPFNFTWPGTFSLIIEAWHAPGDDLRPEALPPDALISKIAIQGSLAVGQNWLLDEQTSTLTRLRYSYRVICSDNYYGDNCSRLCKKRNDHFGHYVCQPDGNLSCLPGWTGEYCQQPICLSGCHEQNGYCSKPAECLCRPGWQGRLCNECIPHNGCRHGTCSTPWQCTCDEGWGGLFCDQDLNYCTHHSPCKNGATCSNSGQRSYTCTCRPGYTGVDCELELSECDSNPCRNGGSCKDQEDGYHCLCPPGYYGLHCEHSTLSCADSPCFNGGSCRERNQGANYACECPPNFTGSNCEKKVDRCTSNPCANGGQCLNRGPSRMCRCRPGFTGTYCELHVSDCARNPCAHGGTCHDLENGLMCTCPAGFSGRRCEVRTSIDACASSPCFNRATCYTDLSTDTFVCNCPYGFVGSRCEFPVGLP

DLL4 [2] = molecular target: T2, DLL4; test: ELISA
PlGF [3] = molecular target: T3, PlGF (human, UniProt P49763); test: ELISA
T3 chain: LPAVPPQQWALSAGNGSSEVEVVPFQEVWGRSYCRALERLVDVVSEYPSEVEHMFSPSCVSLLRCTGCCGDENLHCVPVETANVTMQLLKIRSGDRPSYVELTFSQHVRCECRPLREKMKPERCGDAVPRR

PlGF [4] = molecular target: T3, PlGF; test: SPR
ErbB3 = ErbB3 (human, UniProt P21860); test: ELISA
HGF [5] = molecular target: T4, HGF (human, UniProt P14210); test: ELISA
T4 sequence (P14210 32-728): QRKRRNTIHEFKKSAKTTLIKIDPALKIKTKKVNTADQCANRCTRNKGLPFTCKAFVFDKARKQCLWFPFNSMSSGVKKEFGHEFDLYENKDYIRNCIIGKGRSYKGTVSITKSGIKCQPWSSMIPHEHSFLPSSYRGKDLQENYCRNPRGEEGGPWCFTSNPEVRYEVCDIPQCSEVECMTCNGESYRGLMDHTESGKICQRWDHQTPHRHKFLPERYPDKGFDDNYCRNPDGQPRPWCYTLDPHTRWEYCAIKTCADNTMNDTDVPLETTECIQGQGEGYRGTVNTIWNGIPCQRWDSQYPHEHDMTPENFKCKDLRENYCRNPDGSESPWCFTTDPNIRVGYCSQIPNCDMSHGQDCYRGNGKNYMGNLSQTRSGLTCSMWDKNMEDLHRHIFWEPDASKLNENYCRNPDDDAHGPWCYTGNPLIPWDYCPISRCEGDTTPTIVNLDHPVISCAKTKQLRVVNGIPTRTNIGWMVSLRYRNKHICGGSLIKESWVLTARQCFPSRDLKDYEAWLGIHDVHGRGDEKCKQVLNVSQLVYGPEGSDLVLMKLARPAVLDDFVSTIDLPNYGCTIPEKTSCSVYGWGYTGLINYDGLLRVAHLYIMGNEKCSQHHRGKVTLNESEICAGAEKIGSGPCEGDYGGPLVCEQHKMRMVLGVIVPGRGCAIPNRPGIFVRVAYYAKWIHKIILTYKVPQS

HGF [6] = molecular target: T4, HGF; test: SPR
HGF [7] = molecular target: T4, HGF; test: competition

B1: DVD497 VEGF arm (antibody, V domains shown)
VH: EVQLVESGGGLVQPGGSLRLSCAASGFTINASWIHWVRQAPGKGLEWVGAIYPYSGYTNYADSVKGRFTISADTSKNTAYLQMNSLRAEDTAVYYCARWGHSTSPWAMDYWGQGTLVTVSS
VL: DIQMTQSPSSLSASVGDRVTITCRASQVIRRSLAWYQQKPGKAPKLLIYAASNLASGVPSRFSGSGSGTDFTLTISSLQPEDFATYYCQQSNTSPLTFGQGTKVEIKR
EC50 (VEGF): 858 nM

B7: DVD510 VEGF arm (antibody, V domains shown)
VH: B1 VH
VL: B1 VL
EC50 (VEGF): 23.9 nM

B10: DVD504 VEGF arm (antibody, V domains shown)
VH: B1 VH
VL: B1 VL
EC50 (VEGF): 16.7 nM

B15: DVD467 VEGF arm (antibody, V domains shown)
VH: B1 VH
VL: B1 VL
EC50 (VEGF): 1810 nM

B16: DVD468 VEGF arm (antibody, V domains shown)
VH: B1 VH
VL: B1 VL
EC50 (VEGF): 25.6 nM

B17: DVD480 VEGF arm (antibody, V domains shown)
VH: B1 VH
VL: B1 VL
EC50 (VEGF): 23 nM

B19: DVD479 VEGF arm (antibody, V domains shown)
VH: B1 VH
VL: B1 VL
EC50 (VEGF): 456 nM

B20: DVD503 VEGF arm (antibody, V domains shown)
VH: B1 VH
VL: B1 VL
EC50 (VEGF): 430 nM

B23: DVD258 DLL4 arm (antibody)
chain 1: EVQLVESGGGLVQPGGSLRLSCAASGFTFTDNWISWVRQAPGKGLEWVGYISPNSGFTYYADSVKGRFTISADTSKNTAYLQMNSLRAEDTAVYYCARDNFGGYFDYWGQGTLVTVSS
chain 2: DIQMTQSPSSLSASVGDRVTITCRASQDVSTAVAWYQQKPGKAPKLLIYSASFLYSGVPSRFSGSGSGTDFTLTISSLQPEDFATTYYCQQSYTGTVTFGQGTKVEIKR
modifications: DVD-Ig inner
IC50 (DLL4 [1]): 17.5 nM | EC50 (DLL4 [2]): 2.3 nM

B24: AB047 (antibody, V domains shown)
VH: QVQLQQSGAELVKPGASVKISCKASGYTFTDYYINWVKLAPGQGLEWIGWIYPGSGNTKYNEKFKGKATLTIDTSSSTAYMQLSSLTSEDTAVYFCVRDSPFFDYWGQGTLLTVSS
VL: DIVLTQSPDSLAVSLGERVTMNCKSSQSLLNSGMRKSFLAWYQQKPGQSPKLLIYWASTRESGVPDRFTGSGSGTDFTLTISSVQAEDVAVYYCKQSYHLFTFGSGTKLEIKR
EC50 (PlGF [3]): 0.2 nM | Kd (PlGF [4]): 0.0285 nM and 0.0284 nM

B28: DVD258 PlGF arm (antibody, V domains shown)
VH: B24 VH
VL: B24 VL
modifications: DVD-Ig outer
EC50 (PlGF [3]): 0.08 nM | Kd (PlGF [4]): < 0.254 nM

B29: DVD300 ErbB3 arm (antibody, V domains shown)
VH: QVQLQQWGAGLLKPSETLSLTCAVYGGSFSGYYWSWIRQPPGKGLEWIGEINHSGSTNYNPSLKSRVTISVETSKNQFSLKLSSVTAADTAVYYCARDKWTWYFDLWGRGTLVTVSS
VL: not shown
modifications: DVD-Ig inner
EC50 (ErbB3): 7630 nM

B30: DVD033 HGF arm (antibody, V domains shown)
VH: QVQLVESGGGLVKPGGSLRLSCAASGFTFSDYYMSWIRQAPGKGLEWVSYISSSGSTIYYADSVKGRFTISRDNAKNSLYLQMNSLRAEDTAVYYCARDEYNSGWYVLFDYWGQGTLVTVSS
VL: DIQMTQSPSSVSASVGDRVTITCRASQGISSWLAWYQQKPGKAPNLLIYEASSLQSGVPSRFGGSGSGTDFTLTISSLQPEDFATYYCQQANGFPWTFGQGTKVEIKR
modifications: DVD-Ig inner
EC50 (HGF [5]): 11.9 nM | Kd (HGF [6]): 0.31 nM | IC50 (HGF [7]): 8.7 nM

B31: AB012 (antibody, V domains shown)
VH: B30 VH
VL: B30 VL
EC50 (HGF [5]): 0.19 nM and 0.22 nM | Kd (HGF [6]): < 0.0284 nM | IC50 (HGF [7]): 0.18 nM

B32: DVD034 HGF arm (antibody, V domains shown)
VH: B30 VH
VL: B30 VL
modifications: DVD-Ig outer
EC50 (HGF [5]): 0.27 nM | Kd (HGF [6]): 0.0215 nM | IC50 (HGF [7]): 0.34 nM

B34: DVD046 HGF arm (antibody, V domains shown)
VH: B30 VH
VL: B30 VL
modifications: DVD-Ig outer
EC50 (HGF [5]): 0.5 nM | Kd (HGF [6]): < 0.0236 nM

More lines, now with the values ahead:

EC50 (VEGF): 23.6 nM
B2: DVD534 VEGF arm (antibody, V domains shown)
VH: B1 VH
VL: B1 VL

EC50 (VEGF): 17.8 nM
B3: DVD452 VEGF arm (antibody, V domains shown)
VH: B1 VH
VL: B1 VL

EC50 (VEGF): 24.6 nM
B4: DVD516 VEGF arm (antibody, V domains shown)
VH: B1 VH
VL: B1 VL

EC50 (VEGF): 2380 nM
B5: DVD527 VEGF arm (antibody, V domains shown)
VH: B1 VH
VL: B1 VL

EC50 (VEGF): 1260 nM
B6: DVD533 VEGF arm (antibody, V domains shown)
VH: B1 VH
VL: B1 VL

EC50 (VEGF): 388 nM
B8: DVD473 VEGF arm (antibody, V domains shown)
VH: B1 VH
VL: B1 VL

EC50 (VEGF): 19.3 nM
B9: DVD464 VEGF arm (antibody, V domains shown)
VH: B1 VH
VL: B1 VL

EC50 (VEGF): 21.5 nM
B11: DVD458 VEGF arm (antibody, V domains shown)
VH: B1 VH
VL: B1 VL

EC50 (VEGF): 17.9 nM
B12: DVD474 VEGF arm (antibody, V domains shown)
VH: B1 VH
VL: B1 VL

EC50 (VEGF): 14500 nM
B13: DVD445 VEGF arm (antibody, V domains shown)
VH: B1 VH
VL: B1 VL

EC50 (VEGF): 23.5 nM
B14: DVD522 VEGF arm (antibody, V domains shown)
VH: B1 VH
VL: B1 VL

EC50 (VEGF): 8.42 nM
B18: DVD492 VEGF arm (antibody, V domains shown)
VH: B1 VH
VL: B1 VL

EC50 (VEGF): 121 nM
B21: DVD509 VEGF arm (antibody, V domains shown)
VH: B1 VH
VL: B1 VL

EC50 (VEGF): 28 nM
B22: DVD486 VEGF arm (antibody, V domains shown)
VH: B1 VH
VL: B1 VL

EC50 (PlGF [3]): 1.3 nM | Kd (PlGF [4]): 0.33 nM
B25: DVD259 PlGF arm (antibody, V domains shown)
VH: B24 VH
VL: B24 VL
modifications: DVD-Ig inner

EC50 (PlGF [3]): 0.12 nM | Kd (PlGF [4]): 0.012 nM
B26: DVD260 PlGF arm (antibody, V domains shown)
VH: B24 VH
VL: B24 VL
modifications: DVD-Ig outer

EC50 (PlGF [3]): 2 nM | Kd (PlGF [4]): 0.367 nM
B27: DVD257 PlGF arm (antibody, V domains shown)
VH: B24 VH
VL: B24 VL
modifications: DVD-Ig inner

EC50 (HGF [5]): 251 nM | Kd (HGF [6]): 0.746 nM | IC50 (HGF [7]): > 100 nM
B33: DVD025 HGF arm (antibody, V domains shown)
VH: B30 VH
VL: B30 VL
modifications: DVD-Ig inner

EC50 (HGF [5]): 0.33 nM | Kd (HGF [6]): 0.0159 nM
B35: DVD026 HGF arm (antibody, V domains shown)
VH: B30 VH
VL: B30 VL
modifications: DVD-Ig outer
